We go through 2 substances from US20190352352A1.

“And” between values parts separate entries of the source, which are not always exact repeats. Equal entries are not always repeated.

In assay [1] the target is TGase-polymerized intact casein (CN-TG). Briefly: casein-specific ELISA kit. In general terms: ELISA stands for enzyme-linked immunosorbent assay.
For assay [2], the target named is TG polymers of chymotryptic WPI hydrolysate (chymotryptic-WPIH-TG). Briefly: β-lactoglobulin-specific competitive ELISA kit.
The target of assay [3] is TG polymers of thermolysin WPI hydrolysate (thermolysin-WPIH-TG). In words: β-lactoglobulin-specific competitive ELISA kit.
For assay [4], the target named is TGase-polymerized native WPI (WPI-TG). Briefly: β-lactoglobulin-specific competitive ELISA kit.
For assay [5], the target named is chymotryptic hydrolysate of WPI (chymotryptic-WPIH). In words: β-lactoglobulin-specific competitive ELISA kit.
The target of assay [6] is repolymerized tryptic WPI hydrolysate (tryptic-WPIH-TG). In words: β-lactoglobulin-specific competitive ELISA kit.
Assay [7] has as its target thermolysin hydrolysate of WPI (thermolysin-WPIH). In words: β-lactoglobulin-specific competitive ELISA kit.
Assay [8] addresses tryptic hydrolysate of WPI (tryptic-WPIH). In words: β-lactoglobulin-specific competitive ELISA kit.
The target of assay [9] is native WPI digests (peptides released during simulated gastric and duodenal digestion of native WPI). Briefly: β-lactoglobulin-specific competitive ELISA kit, time course of in vitro digestion.
The target of assay [10] is thermolysin-WPIH-TG polymer digest (peptides released during simulated gastric and duodenal digestion). The description is as above.

In [1], “antibody of the AgraQuant F.A.S.T Casein ELISA test kit (Romer Labs Inc.)” showed an immunoreactivity (% of casein control) (% of casein control) of 70.

“antibody of the … β-lactoglobulin test kit (β-lactoglobulin-specific competitive ELISA kit, R-Biopharm AG)”: the immunoreactivity (% of native WPI control) (% of native WPI control) in assay [2] was 44; in [3], 6; in assay [4], 78; in assay [5], 83; in assay [6], 29 to 31; in assay [7], 18. Besides, the immunoreactivity (% of native WPI control) (% of native WPI control) in assay [8] came to 29. Also, the immunoreactivity (%) in assay [9] was 5 to 20%; in assay [10] it was 5% and < 5%.
